This is an account of results in patent US20250257346A1.

The target in data set [1] is Trastuzumab. The data set can be described thus: cell-based or functional assay.
Data set [2] addresses human IgG.
Data set [3] deals with canine IgG.
Data set [4] has as its target monkey IgG.
The target of data set [5] is rabbit IgG.
The target of data set [6] is mouse IgG.
Data set [7] deals with IgG1 in human serum.
In data set [8] the target is rat IgG.
Data set [9] deals with pig serum IgG.
Data set [10] addresses human IVIg (intravenous immunoglobulin).
The target of data set [11] is IgG1 in mouse serum.

Regarding IdeE mutant T24S (enzyme), the Fold of activity relative to wild-type (cleavage of human IgG1, ELISA) in data set [1] was determined as 2.18 fold.

IdeE mutant A10K (enzyme) gave a Fold of activity relative to wild-type (cleavage of human IgG1, ELISA) in data set [1] of 1.99 fold.

Regarding IdeE mutant T8W (enzyme), in [1], the Fold of activity relative to wild-type (cleavage of human IgG1, ELISA) turned out to be 2.58 fold and the cleavage of human IgG1, SDS-PAGE (fold of wild-type IdeE) is > 2.

IdeE mutant A10R (enzyme) showed a Fold of activity relative to wild-type (cleavage of human IgG1, ELISA) in data set [1] of 2.2 fold.

For IdeE mutant T24G (enzyme), in data set [1], the Fold of activity relative to wild-type (cleavage of human IgG1, ELISA) came to 2.09 fold.

As for IdeE mutant R280K (enzyme), the Fold of activity relative to wild-type (cleavage of human IgG1, ELISA) in data set [1] is 2.2 fold.

In the case of IdeE mutant E97D (enzyme), in [1], the Fold of activity relative to wild-type (cleavage of human IgG1, ELISA) came to 2 fold and the cleavage of human IgG1, SDS-PAGE (fold of wild-type IdeE) is > 2.

As for IdeE mutant A59V (enzyme), in data set [1], the Fold of activity relative to wild-type (cleavage of human IgG1, ELISA) worked out at 2.68 fold and the cleavage of human IgG1, SDS-PAGE (fold of wild-type IdeE) is > 2.

In the case of IdeE mutant T8Y (enzyme), the Fold of activity relative to wild-type (cleavage of human IgG1, ELISA) in [1] is 2.3 fold.

On to “IdeE C-terminal truncated mutant WT_delC10 (enzyme)”, for which, in data set [1], the cleavage of human IgG1, SDS-PAGE (fold of wild-type IdeE) is > 2.

Take IdeE mutant T8D (enzyme): in [1], the Fold of activity relative to wild-type (cleavage of human IgG1, ELISA) is 2.21 fold and the cleavage of human IgG1, SDS-PAGE (fold of wild-type IdeE) was > 2.

IdeE mutant T8E (enzyme): in data set [1], the Fold of activity relative to wild-type (cleavage of human IgG1, ELISA) was found to be 2.09 fold.

In the case of IdeE mutant T24A (enzyme), in data set [1], the Fold of activity relative to wild-type (cleavage of human IgG1, ELISA) was found to be 2.23 fold and the cleavage of human IgG1, SDS-PAGE (fold of wild-type IdeE) is > 2.

Molecule IdeE mutant A59I (enzyme) displayed a Fold of activity relative to wild-type (cleavage of human IgG1, ELISA) in data set [1] of 2.31 fold.

For IdeE mutant R280H (enzyme), in data set [1], the Fold of activity relative to wild-type (cleavage of human IgG1, ELISA) was 2.3 fold and the cleavage of human IgG1, SDS-PAGE (fold of wild-type IdeE) is > 2.

On to “IdeE C-terminal truncated mutant WT_delC5 (enzyme)”, for which the cleavage of human IgG1, SDS-PAGE (fold of wild-type IdeE) in data set [1] is > 2.

IdeE mutant A59L (enzyme): in data set [1], the Fold of activity relative to wild-type (cleavage of human IgG1, ELISA) was 2.41 fold and the cleavage of human IgG1, SDS-PAGE (fold of wild-type IdeE) is > 2.

B1: IdeE mutant IDEEV2 (protein)
chain: ITSVWTKGVTPLTPEQFRYNNEDVIHAPYLAHQGWYDITKAFDGKDNLLCGAATAGNMLHWWFDQNKTEIEAYLSKHPDKQKIIFNNQELFDLKAAIDTKDSQTNSQLFNYFRDKAFPNLSARQLGVMPDLVLDMFINGYYLNVFKTQSTDVNRPYQDKDKRGGIFDAVFTRGDQTTLLTARHDLKNKGLNDISTIIKQELTEGRALALSHTYANVSISHVINLWGADFNAEGNLEAIYVTDSDANASIGMKKYFVGINAHGHVAISAKKIEGENIGAQVLGLFTLSSGKDIWQKLS
B1: the “digestion of purified IgG, non-reduction SDS-PAGE (1:200)” value is “IDEEV2 can in species-specificity effectively digest IgG in rabbits, dogs, monkeys, and humans” in data set [2]; “IDEEV2 can in species-specificity effectively digest IgG in rabbits, dogs, monkeys, and humans” in data set [3]; “IDEEV2 can in species-specificity effectively digest IgG in rabbits, dogs, monkeys, and humans” in data set [4]; “IDEEV2 can in species-specificity effectively digest IgG in rabbits, dogs, monkeys, and humans” in data set [5].

B2: IdeE combined mutant E97D_del18 (protein)
chain: ITSVWTKGVTPLTPEQFRYNNEDVIHAPYLAHQGWYDITKAFDGKDNLLCGAATAGNMLHWWFDQNKTEIEAYLSKHPDKQKIIFNNQELFDLKAAIDTKDSQTNSQLFNYFRDKAFPNLSARQLGVMPDLVLDMFINGYYLNVFKTQSTDVNRPYQDKDKRGGIFDAVFTRGDQTTLLTARHDLKNKGLNDISTIIKQELTEGRALALSHTYANVSISHVINLWGADFNAEGNLEAIYVTDSDANASIGMKKYFVGINAHRHVAISAKKIEGENIGAQVLGLFTLSSGKDIWQKLSHHHHHH
Consider B2, for which the “cleavage of serum IgG, SDS-PAGE” value was “can effectively cleave rabbit, canine, and monkey serum IgG” in [3]; “almost no cleavage effect for rat and mouse serum IgG” in data set [6]; “almost no cleavage effect for rat and mouse serum IgG” in data set [8]; “can effectively cleave rabbit, canine, and monkey serum IgG” in [4]; “poor cleavage effect for pig serum IgG” in data set [9]; “can effectively cleave rabbit, canine, and monkey serum IgG, with the best cleavage effect for rabbit serum IgG” in data set [5]. For the same molecule, the “cleavage, SDS-PAGE” value in data set [3] was “E97D_del18 could effectively cleave canine IgG, rabbit IgG and mouse IgG2a”; in data set [5], “E97D_del18 could effectively cleave canine IgG, rabbit IgG and mouse IgG2a”. Moreover, in [7], the “cleavage in human serum, SDS-PAGE” value is listed as “E97D_del18 cleaves in human serum to produce an apparent 25 kD Fc fragment”. Besides, the “cleavage of human IVIg in mouse serum and plasma, SDS-PAGE” value in [10] was “E97D_del18 is effective in cleaving human IVIg in both mouse serum and plasma”. The “cleavage in mouse serum, SDS-PAGE” value in data set [11] is recorded as “little or no cleavage activity against IgG1 in mouse serum”.
